Numbering of substitutions follows the chain as printed. Names may count otherwise.
B1: AB9 (SC0041, CD276-m8524), control anti-B7-H3 antibody (antibody, human IgG1, V domains shown)
VH: QVQLQQSGAEVKKPGSSVKVSCKASGGTFSSYAISWVRQAPGQGLEWMGGIIPILGIANYAQKFQGRVTITADESTSTAYMELSSLRSEDTAVYYCARGGSGSYHMDVWGKGTTVTVSS
VL: EIVLTQSPATLSLSPGERATLSCRASQSVSSYLAWYQQKPGQAPRLLIYDASNRATGIPARFSGSGSGTDFTLTISSLEPEDFAVYYCQQRSNWPPRITFGQGTRLEIKR
notes: Control antibody produced by the applicants; Human IgG1, Kappa-T2S
B2: AB2 (SA2107, CD276-040F10) (antibody, human IgG1, V domains shown)
VH: QVQLVESGAEVKKPGASVKLSCKASGYTFSSYWMHWVRQAPGQRLEWMGEINPGNGHTNYNEKFKSRVTITVDKSASTAYMELSSLRSEDTAVYYCVADPRRPKVPTALFVYWGQGTLVTVSS
VL: DIQMTQSPSSVSASVGDRVTISCRASQGIGTWLAWYQQKPGKAPRLLIYAASSLDSGVPSRFSASGSGTDFTLTISSLQPEDFATYYCQQAINFPITFGQGTRLEIK
notes: Whole human IgG
B3: AB2.1 (SA2107.01, CD276-040F10_IgG1_A1C) (antibody, V domains shown)
VH: B2 VH
VL: DIQMTQSPSSVSASVGDRVTISCRASQGIGTWLAWYQQKPGKAPRLLIYAASSLDSGVPSRFSASGSGTDFTLTISSLQPEDFATYYCQQAINFPITFGQGTRLEIKR
notes: Tested unconjugated; also called SA2107 A121C
B4: AB3 (SA2103, CD276-039C05) (antibody, human IgG1, V domains shown)
VH: QVQLVESGAEVKKPGSSVKVSCKASGGTFSSYAISWVRQAPGQGLEWMGRIIPILGIANYAQKFQGRVTITADKSTSTAYMELSSLRSEDTAVYYCANGGDSSSWYTFDYWGQGTLITVSS
VL: DIQMTQSPSTLSASVGDKLTLTCRASQSISRWLAWYQQKPGKAPKLLIYKASYLQTGVPSRFSGSGTGTEFTLTISSLQPDDFATYYCQQYNTFPLTFAGGTKVEIK
notes: Whole human IgG
B5: AB5 (SA2563, CD276-039C05_LS_002A11) (antibody, human IgG1, V domains shown)
VH: B4 VH
VL: DIQMTQSPSTLSASVGDRLTITCRASQNINSWLAWYQQKPGKAPKLLIYKASYLQTGVPSRFSGSGSGTEFTLTITSLQPDDFASYYCQQYDSNPLTFGGGTKVEIK
notes: Whole human IgG; also called CD276-39C05_LS_002A11
B6: AB7 (SA2571, CD276-039C05_LS_002D03) (antibody, human IgG1, V domains shown)
VH: B4 VH
VL: DIQMTQSPSTLSASVGDRVTITCRASETISSWLAWYQQKPGKAPKLLIYKASSLQSGVPSRFSGSGSGTEFTLTISSLQPDDFATYYCQQYYSYPITFGQGTRLEIK
notes: Whole human IgG; also called CD276-39C05_LS_002D03
B7: AB6 (SA2566, CD276-039C05_LS_002B07) (antibody, human IgG1, V domains shown)
VH: B4 VH
VL: DIQMTQSPSSLSASVGDRVTITCRASQGISSYLAWYQQKPGKAPKLLIYAASTLQSGVPSRFSGSGSGTDFTLTISSLQPEDFATYYCQQYYSFPLTFGGGTKVEIK
notes: Whole human IgG; also called CD276-39C05-LS-002B07
B8: AB8 (SA2579, CD276-039C05_LS_002H07) (antibody, human IgG1, V domains shown)
VH: B4 VH
VL: B5 VL with L19V, N28S, N30D, S31N, Y53S, T56S, T76S
notes: Whole human IgG; also called CD276-39C05-LS-002H07
B9: AB4 (SA2545, CD276-039C05_LS_001E10) (antibody, human IgG1, V domains shown)
VH: B4 VH
VL: B5 VL with L19V, T20N, N28T, S67A, T76S, S85T, D92N, N94Y, P95S
notes: Whole human IgG; also called CD276-39C05-LS-001E10

target: T1, Human 4IgB7-H3 (Y-Biologics Inc.) (human, UniProt Q5ZPR3 29-466, limits assumed); assay: SPR (Biacore 8K), antibody captured on anti-human Fc, antigen as analyte, 1:1 fit
T1 construct: 4Ig isoform
T1 sequence (looked up): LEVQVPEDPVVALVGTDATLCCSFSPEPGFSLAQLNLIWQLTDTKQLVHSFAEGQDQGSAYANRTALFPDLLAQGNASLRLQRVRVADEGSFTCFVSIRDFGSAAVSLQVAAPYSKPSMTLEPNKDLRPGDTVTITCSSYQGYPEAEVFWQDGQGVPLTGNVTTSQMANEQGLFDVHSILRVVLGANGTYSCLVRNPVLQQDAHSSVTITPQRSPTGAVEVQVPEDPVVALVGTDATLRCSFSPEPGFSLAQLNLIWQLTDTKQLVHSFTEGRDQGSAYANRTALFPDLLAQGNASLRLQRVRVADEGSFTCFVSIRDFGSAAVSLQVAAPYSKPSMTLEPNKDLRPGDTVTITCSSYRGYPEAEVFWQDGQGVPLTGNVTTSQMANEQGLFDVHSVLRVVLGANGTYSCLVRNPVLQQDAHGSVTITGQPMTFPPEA
Protocol: (§1) A Biacore 8K (GE Life science) instrument was used to measure the binding kinetics about several B7-H3 variants (analyte) binding to various mAbs (ligands). Antibodies were captured onto the immobilized anti-human Fc antibody (GE Life science). […] For binding kinetic measurements, the HBS-EP+ was used for running buffer (10 mM Hepes, pH7.4, 150 mM NaCl, 3 mM EDTA, 0.05% polysorbate20). […] After capturing ligand, various B7-H3 antigens were analyzed for 120 s and the dissociation was monitored for 600 s at a flow rate of 30 ul/min. […] For the kinetic analysis, 5 points of 2-fold diluted analytes were flown over the captured ligand ranging from 20 nM of human 4Ig B7-H3 (Y-Biologics Inc.), 320 nM of human 2Ig B7-H3 (Acrobiosystems), 40 nM of cynomolgus monkey B7-H3 (Sino biological Inc.), and 160 nM of mouse B7-H3 (Sino biological Inc.). Kinetic information was calculated by fitting data to a 1:1 binding model using Biacore Insight Evaluation software (GE Life Science) to determine ka (association constant), kd (dissociation constant), and KD (equilibrium dissociation constant).

B1 was tested. Which Kd did it give?
Its Kd is 518 pM.

What about the koff of the same binder?
The koff was 0.000617 s⁻¹.

What about the kon of the same binder?
Its kon is 1.19e+06 M⁻¹ s⁻¹.

B2 was tested. Which Kd did it give?
Its Kd is 446 pM.

And the koff?
The koff was 0.000199 s⁻¹.

And the kon?
Its kon is 446000 M⁻¹ s⁻¹.

Which results are given for B3?
Kd: 1060 pM; koff: 0.00047 s⁻¹; kon: 442000 M⁻¹ s⁻¹

target: T2, Human 2IgB7-H3 (Acrobiosystems) (human, UniProt Q5ZPR3-2 29-245, limits assumed); assay: as above
T2 construct: 2Ig isoform (the short splice form of the same UniProt entry)
T2 sequence (looked up): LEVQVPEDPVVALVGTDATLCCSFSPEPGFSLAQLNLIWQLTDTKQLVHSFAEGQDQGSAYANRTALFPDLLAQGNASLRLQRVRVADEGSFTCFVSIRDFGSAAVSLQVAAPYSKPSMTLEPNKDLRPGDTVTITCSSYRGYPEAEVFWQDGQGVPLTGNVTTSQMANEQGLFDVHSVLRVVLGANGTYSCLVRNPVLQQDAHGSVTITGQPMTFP
Protocol: as §1

With B1 as the binder, how does the Kd read?
The Kd was 208000 pM.

What about the koff of the same binder?
The koff was 0.107 s⁻¹.

And the kon?
Its kon is 515000 M⁻¹ s⁻¹.

Which results are given for B2?
Kd: 25000 pM; koff: 0.00515 s⁻¹; kon: 206000 M⁻¹ s⁻¹

How did the Kd turn out when B3 was run?
Its Kd is 21600 pM.

And the koff?
The koff was 0.00469 s⁻¹.

What about the kon of the same binder?
The kon was 217000 M⁻¹ s⁻¹.

target: T3, Cyno B7-H3 (Sino biological Inc.) (cynomolgus monkey); assay: as above
T3 construct: also called cynomolgus monkey B7-H3
Protocol: as §1

What does the source list for B1?
Kd: 278 pM; koff: 0.000242 s⁻¹; kon: 871000 M⁻¹ s⁻¹

Which results are given for B2?
Kd: 919 pM; koff: 0.000442 s⁻¹; kon: 481000 M⁻¹ s⁻¹

Which results are given for B3?
Kd: 1050 pM; koff: 0.000504 s⁻¹; kon: 480000 M⁻¹ s⁻¹

target: T4, Mouse B7-H3 (Sino biological Inc.) (mouse, UniProt Q8VE98 29-244, limits assumed); assay: as above
T4 sequence (looked up): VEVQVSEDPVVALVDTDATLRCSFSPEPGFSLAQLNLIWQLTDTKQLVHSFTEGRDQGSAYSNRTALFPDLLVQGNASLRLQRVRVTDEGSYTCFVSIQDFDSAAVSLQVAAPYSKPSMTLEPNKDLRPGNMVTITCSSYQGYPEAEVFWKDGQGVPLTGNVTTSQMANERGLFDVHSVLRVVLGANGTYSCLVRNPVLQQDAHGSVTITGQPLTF
Protocol: as §1

B1 was tested. Which Kd did it give?
Its Kd is 49000 pM.

What about the koff of the same binder?
Its koff is 0.0294 s⁻¹.

And the kon?
Its kon is 600000 M⁻¹ s⁻¹.

What does the source list for B2?
Kd: 47300 pM; koff: 0.0193 s⁻¹; kon: 408000 M⁻¹ s⁻¹

What does the source list for B3?
Kd: 42400 pM; koff: 0.0178 s⁻¹; kon: 420000 M⁻¹ s⁻¹

Target: T5, human B7-H3 (Y-Biologics Inc.) (human, UniProt Q5ZPR3 29-466)
T5 chain: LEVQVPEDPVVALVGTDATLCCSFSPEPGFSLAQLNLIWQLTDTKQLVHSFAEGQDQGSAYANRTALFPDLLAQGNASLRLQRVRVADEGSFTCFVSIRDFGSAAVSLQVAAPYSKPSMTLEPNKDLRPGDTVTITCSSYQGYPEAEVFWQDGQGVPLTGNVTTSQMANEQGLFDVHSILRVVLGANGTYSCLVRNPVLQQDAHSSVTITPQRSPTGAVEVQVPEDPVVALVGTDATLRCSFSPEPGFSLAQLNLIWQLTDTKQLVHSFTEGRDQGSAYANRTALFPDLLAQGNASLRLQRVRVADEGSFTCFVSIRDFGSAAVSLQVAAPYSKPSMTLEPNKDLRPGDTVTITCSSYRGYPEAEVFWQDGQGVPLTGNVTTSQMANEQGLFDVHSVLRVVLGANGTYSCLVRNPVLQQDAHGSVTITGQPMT
Assay: BLI (Octet QKe), antibody on AHC biosensor, human B7-H3 as analyte, 1:1 global fit

With B1 as the binder, how does the Kd read?
The Kd was 300 pM.

What about the koff of the same binder?
The koff was 0.0002 s⁻¹.

What about the kon of the same binder?
The kon was 500000 M⁻¹ s⁻¹.

Which results are given for B4?
Kd: 40 pM; koff: 3e-05 s⁻¹; kon: 600000 M⁻¹ s⁻¹

What does the source list for B5?
Kd: 100 pM; koff: 0.0002 s⁻¹; kon: 1e+06 M⁻¹ s⁻¹

What does the source list for B6?
Kd: 300 pM; koff: 0.0005 s⁻¹; kon: 2e+06 M⁻¹ s⁻¹

With B7 as the binder, how does the Kd read?
Its Kd is 200 pM.

And the koff?
The koff was 0.0006 s⁻¹.

And the kon?
Its kon is 3e+06 M⁻¹ s⁻¹.

B8 was tested. Which Kd did it give?
The Kd was 300 pM.

What about the koff of the same binder?
Its koff is 0.0003 s⁻¹.

And the kon?
The kon was 900000 M⁻¹ s⁻¹.

What does the source list for B9?
Kd: 60 pM; koff: 7e-05 s⁻¹; kon: 1e+06 M⁻¹ s⁻¹

Which Kd does the source give for B2 here?
Its Kd is 50 pM.

And the koff?
The koff was 4e-05 s⁻¹.

What about the kon of the same binder?
Its kon is 700000 M⁻¹ s⁻¹.

B3 was tested. Which Kd did it give?
The Kd was 50 pM.

And the koff?
The koff was 2e-05 s⁻¹.

What about the kon of the same binder?
The kon was 500000 M⁻¹ s⁻¹.

From US20250121087A1 (INTOCELL, published 2025)
